Kd, IC50 and inhibition of NFkB signal transduction (luciferase reporter) data for one substance are collected here from patent US20130108641A1.

Assay [1] deals with human GITR expressed on cells (human) (UniProt Q9Y5U5). As to the kind of experiment: FACS, Alexa488-labeled antibody on PHA-stimulated human PBMCs. For orientation: In flow cytometry, cells or beads pass a laser one at a time.
Assay [2] deals with human GITR-Fc fusion protein (human) (UniProt Q9Y5U5). Kind of assay: competition ELISA, GITRL coated, GITR-Fc 0.25 µg/mL pre-incubated with antibody. In general terms: An ELISA detects its analyte on a solid surface through an enzyme-linked reagent.
human GITR-Fc fusion protein (human), sequence (Q9Y5U5 26-162): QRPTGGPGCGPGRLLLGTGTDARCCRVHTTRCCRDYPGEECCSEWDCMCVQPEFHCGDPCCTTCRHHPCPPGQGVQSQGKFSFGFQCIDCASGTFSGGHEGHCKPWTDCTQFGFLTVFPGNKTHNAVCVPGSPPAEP
Assay [3] deals with human GITR expressed on cells (human) (UniProt Q9Y5U5). Kind of assay: cell-based or functional assay.

human GITR expressed on cells (human), sequence (Q9Y5U5 26-241): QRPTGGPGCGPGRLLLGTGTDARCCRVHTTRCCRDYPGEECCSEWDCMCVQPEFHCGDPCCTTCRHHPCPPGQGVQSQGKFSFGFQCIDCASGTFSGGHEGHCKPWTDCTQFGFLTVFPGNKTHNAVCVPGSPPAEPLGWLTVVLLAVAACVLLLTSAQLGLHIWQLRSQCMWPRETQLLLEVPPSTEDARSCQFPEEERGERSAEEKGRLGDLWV

Broadly, the Kd is a measure of binding affinity in units of concentration. The IC50 is the midpoint of a concentration-inhibition curve. A high value points to lower potency. In turn, “MAB689 (R&D Systems), commercial anti-GITR antibody” yielded a Kd in assay [1] of 1.66 nM. The substance also gave a concentration for half-maximal inhibition (IC50) in assay [2] of 13.9 nM. This substance also yielded an inhibition of NFkB signal transduction (luciferase reporter) at 300 ng/ml in assay [3] of 18%.
